Test results reported in patent US20170029841A1, “METHODS AND COMPOSITIONS FOR SELECTIVE REGULATION OF PROTEIN EXPRESSION” (priority 2015, published 2017).
Read-outs that look alike come from different tables or passages of the source.

What was measured:
[1] = test system: transgenic maize R0 plants (double copy events); experiment: R0 plant greenhouse glyphosate spray: vegetative tolerance and induced male sterility; format: in vivo; details: for % Vegetative Tolerant / % Vegetative Tolerance: glyphosate 0.75 lb ae/acre at V5 then V8; for % Vegetative Tolerant: <=10% injury 7 days after V5 spray
Protocol: Transformation vectors containing the recombinant DNA constructs were used with an Agrobacterium-based transformation method and maize immature embryos and techniques known in the art. Leaf samples of R0 plants were collected and molecular analysis was conducted to select transgenic plants containing a single copy (one insertion) or a double copy (two independent insertions) of the recombinant DNA construct and no presence of vector backbone. Single copy events were not sprayed with glyphosate and were selfed and advanced for R1 seed collection, while double copy events were used for R0 glyphosate spray to assess vegetative tolerance and induced male sterility. Transgenic plants that were not sprayed with glyphosate had normal anthesis, normal pollen shedding, and normal pollen development as determined by Alexandar staining and microscopic observation.
Double copy R0 events were used in testing to approximate a single copy homozygous event. Plants were sprayed with glyphosate at two different growth stages to determine if the presence of the mts-siRNA target element in the recombinant DNA construct provided vegetative glyphosate tolerance and glyphosate-induced tassel sterility. The plants were sprayed in a greenhouse with 1× glyphosate (0.75 lb ae/acre) applied at the V5 stage followed by 1× glyphosate (0.75 lb ae/acre) applied at the V8 stage. Seven days after the V5 stage glyphosate application, plants were scored for vegetative injury with scores of ≦10% injury considered as showing vegetative glyphosate tolerance (% Vegetative Tolerant). Male sterility was measured in two ways. […] Anthers were then collected and dissected to microscopically observe pollen development. Anthers for each event were tested for no viable pollen grains produced as detected by Alexandar staining under microscopic observation and scored as not producing any viable pollen (% No Pollen). In plants not sprayed with glyphosate, tassel development, anther extrusion, and pollen development were normal.
The mts-siRNA target elements were tested in multiple transformation vector configurations. Each transformation vector was used to produce multiple R0 plants with each R0 plant representing a unique transgenic event made using the same transformation vector. Data for three different transformation vector configurations are provided as Tables 11 and 12.

transgenic maize plants = details: for AES90+8 (LSD = 10): average anther extrusion at S90+8, same glyphosate regimen; for Seed Yield bu/acre (LSD = 24.7): end of season; for CIPVT (LSD = 8.1): glyphosate 1.5 lbs ae/acre at V2, 0.75 at V8, 0.75 at V10, range over events; for Avg. plant height (inches) (LSD = 6.9): in vivo
[2] = vector configuration A, no viable pollen by Alexandar staining
[3] = vector configuration A, no anther extrusion up to S90+12 after V8 glyphosate

| Molecule | % No Pollen [1, 2] | Seed Yield bu/acre (LSD = 24.7) (transgenic maize plants) | CIPVT (LSD = 8.1) (transgenic maize plants) | % Completely Male-sterile ([1]; vector configuration B) | % No Pollen ([1]; vector configuration B) | % Vegetative Tolerance ([1]; vector configuration B) | % Completely Male-sterile ([1]; vector configuration C) | % No Pollen ([1]; vector configuration C) | % Vegetative Tolerance ([1]; vector configuration C) | % Vegetative Tolerant ([1]; vector configuration A) | % Completely Male-sterile [1, 3] | also measured |
| --- | --- | --- | --- | --- | --- | --- | --- | --- | --- | --- | --- | --- |
| SEQ ID NO: 7: mts-siRNA target element, nucleotide positions 1357 to 1562 of cDNA SEQ ID NO: 20 (nucleic acid, Zea mays) DNA: GGAACCGGTGACCAGCTGCACGACGATGAATCCTACAAGACGACCATGTAATACACAGTGTCGTCCTCTTCGTTCTACTACTCAACAGAGCAGTCGCCGACCAATAACGAATGGAGTATTATCTCTGTCCTTCACCTTACACCATATTCACACCATAGAACTGCAAATGTCCGAGGTACCAACTAACATCGGTACCTTTGGCATGA | 44% | no significant decrease | No significant difference |  |  |  |  |  |  |  |  | % Vegetative Tolerant ([1]; vector configuration A, listed as 7): 88%; % Completely Male-sterile ([1]; vector configuration A, no anther extrusion up to S90+12 after V8 glyphosate, listed as 7): 100%; AES90+8 (LSD = 10) (transgenic maize plants): 0-1.5%; AES90+8 (LSD = 10) (transgenic maize plants; listed as 7): 0-1.5%; Seed Yield bu/acre (LSD = 24.7) (transgenic maize plants; listed as 7): 100-110 bu/acre; CIPVT (LSD = 8.1) (transgenic maize plants; listed as 7): 3.75-5%; Avg. plant height (inches) (LSD = 6.9) (transgenic maize plants): No significant difference; Avg. plant height (inches) (LSD = 6.9) (transgenic maize plants; listed as 7): 79.8 inches |
| SEQ ID NO: 10: recombinant mts-siRNA target element sequence (nucleic acid, expressed or natural sequence; target site or template, no part of the molecule) DNA: AGACGACGACCGTGCATGGTGATGAATCACAGACGACGAACACGCATGTCGCATCGCCGTCCTCTCACACCATAGAACTGCAAATGTCCG |  |  |  | 55% | 22% | 90% | 100% | 0% | 83% |  |  |  |
| SEQ ID NO: 6: mts-siRNA target element, nucleotide positions 370 to 477 of cDNA SEQ ID NO: 19 (nucleic acid, chemistry not fully specified; the letters are possibly those of the target site) DNA: TCGCCGAGAAGGGAGTAGTAGTATTACCTGATATCTATGCTAATTCAGGTGGTGTGGTCGTTAGCTACTTTAATTGAGTGGGTTCAGAACATTCAAGGTTTCATGTGG | 0% |  | No significant difference |  |  |  |  |  |  | 90% | 82% | AES90+8 (LSD = 10) (transgenic maize plants; listed as 6): 25%; CIPVT (LSD = 8.1) (transgenic maize plants; listed as 6): 3.75% |
| SEQ ID NO: 5: mts-siRNA target element, nucleotide positions 239 to 433 of cDNA SEQ ID NO: 19 (nucleic acid, chemistry not fully specified; the letters are possibly those of the target site) DNA: TGGCTGCTTCTGTTGGCGTGAAAGCTCGAGTGCTCCTAAATGGTCGTCGTATTAGCTGATACGACATCTACCCGATGCAATAGATAATATTGTTTACACGCGTGAGTC | 0% |  | No significant difference |  |  |  |  |  |  |  |  | % Vegetative Tolerant ([1]; vector configuration A, listed as 5): 90%; % Completely Male-sterile ([1]; vector configuration A, no anther extrusion up to S90+12 after V8 glyphosate, listed as 5): 50%; AES90+8 (LSD = 10) (transgenic maize plants; listed as 5): 10%-20%; CIPVT (LSD = 8.1) (transgenic maize plants; listed as 5): 5% |
| SEQ ID NO: 1: mts-siRNA target element, 95% identity to nucleotide positions 1429 to 1628 of cDNA SEQ ID NO: 17 (nucleic acid) DNA: AGACGACGACCGTGCATGGTGATGAATCACAGACGACGAACACGCATGTCGCATCGCCGTCCTCTTTGTATCACACAGCATCACCTTCTTCGCTCTACTACTCCCCCGAGCAATCACCGACCAATAACACCAACCATCAACCTCCCCCGTCGCCGCCGCCTTCACCGTCCTCCCCTCACACCATAGAACTGCAAATGTCCG |  | no significant decrease | No significant difference | 100% | 100% | 67% | 100% | 60% | 38% |  |  | AES90+8 (LSD = 10) (transgenic maize plants): 0-2.75%; AES90+8 (LSD = 10) (transgenic maize plants; listed as 1): 0-2.75%; Seed Yield bu/acre (LSD = 24.7) (transgenic maize plants; listed as 1): 97-99 bu/acre; CIPVT (LSD = 8.1) (transgenic maize plants; listed as 1): 2.5-6.25%; Avg. plant height (inches) (LSD = 6.9) (transgenic maize plants): No significant difference; Avg. plant height (inches) (LSD = 6.9) (transgenic maize plants; listed as 1): 84.75 inches |
| SEQ ID NO: 11: recombinant mts-siRNA target element sequence (nucleic acid) DNA: AGACGACGACCGTGCATGGTGATGAATCACAGACGACGAACACGCATGTCGCATCGCCGTCCTCTCACACCATAGAACTGCAAATGTCCGACAACAAGCACCTTCTTGCCTTGCAGTATTGGTGGTGACGACATCCTTGGTGTGCATGCACTGGTGAGTCACTGT |  |  |  | 50% | 0% | 100% | 80% | 0% | 55% |  |  |  |
| SEQ ID NO: 16: recombinant mts-siRNA target element sequence (nucleic acid) DNA: GACAACAAGCACCTTCTTGCCTTGCAGTATTGGTGGTGACGACATCCTTGGTGTGCATGCACTGGTGAGTCACTGTTGTACGTGATAACTTCTATGCTGGCTGTGATTGCTAGTTGAAGAAAAGAATAGATATGGTGACATCAAGTTTCCACTGCGTGACGCCAACGTGCATATCGCCATCCTCTGCTACGAGGGAATGTCATTGGTCGATGAGATGAGGGTGAATCGGATGTTGAGGTGGCACGATAGTTAAGGCGCAAGGGT | 0% |  |  |  |  |  |  |  |  | 80% | 50% |  |
| SEQ ID NO: 3: mts-siRNA target element, nucleotide positions 239 to 433 of cDNA SEQ ID NO: 18 (nucleic acid, Zea mays) DNA: TCTAGCCACACGGTCACGTTTGGACGACCAATAATAGGCTTGCAACCCTTCAAATTGTGTCCATCAGCTTCCCAACGTGCATATCGCCATCCTCTGCTTCGTGTCCCATGTCACCACCCCCACTCTTCCTCTTTACATGCAATGCAAATAAAGCAGATCCAACGTGGATGAGGGTGAATCGGATGTTGAGGTGGG | 0% |  |  |  |  |  |  |  |  | 90% | 10% |  |
| SEQ ID NO: 4: mts-siRNA target element, nucleotide positions 477 to 697 of cDNA SEQ ID NO: 18 (nucleic acid, Zea mays) DNA: ACGAGGGAATGTCATTGGTCGATGAGTTGGAGGCGTCAAATGCAGATAAAGCTACAACTTCCATGTGGAGGATGACTGCGACGTTGTGGCAGACTCATCCACTACAGTGAGAGTCTAGGAAAGCATGAAGCCGATTGTGGACATCGATGTCGGTGTCAAGGACTTATAGATGTCATGTTGGGAGAGCAACCATGGCACGATAGTTAAGGCGCAAGGGTATC | 0% | 70-80 bu/acre | No significant difference |  |  |  |  |  |  | 86% | 7% | AES90+8 (LSD = 10) (transgenic maize plants; listed as 4): 16.25-18.75%; CIPVT (LSD = 8.1) (transgenic maize plants; listed as 4): 1.25-3.75% |
| SEQ ID NO: 12: recombinant mts-siRNA target element sequence (nucleic acid) DNA: AGACGACGACCGTGCATGGTGATGAATCACAGACGACGAACACGCATGTCGCATCGCCGTCCTCTCACACCATAGAACTGCAAATGTCCGCTCTTCACCGTTGTAGTCGTTGATGGTATTGGTGGTGACGACATCCTTGGTGTGCATGCACTGGTGAGTCACTGTTGTAC |  |  |  | 50% | 20% | 100% | 23% | 0% | 87% |  |  |  |
